Experimental data published in the DeepSol protein solubility set.

Assay: soluble on expression in E. coli; label from the status in PepcDB or PDB records

Sequence	soluble on expression in E. coli
MGSDKIHHHHHHMTKDYVIEMRNITKIFGEFVANDHINLNVRRGEIHALLGENGAGKSTLMNMLAGLLEPTSGEIVINGQSVKIDSPSKAAQLGIGMVHQHFMLVDAFTVAENIILGSETTKGGVIDLKKAIAEIKELSAKYGLEVDPTAKVADISVGAQQRVEILKTLYRGADLLIFDEPTAVLTPAEIAELLKIMKALVEEGKSIILITHKLDEIRAVADSVTVIRRGKSIETVAVEGATNQDLAEWMVGRSVSFKTEKVEASPKEVILSIKDLVVNENRGIPAVKGLSLDVRAGEVVGIAGIDGNGQSELIQAITGLRKVKSGSITIKGEEVVGKTPRKITEMQVSHVPEDRHRDGLVLPMTVAENFALQTYYKEPISKNGILNYNIINEKARALMEEFDVRGASELVPIKALSGGNQQKAIIAREIDRNPDLFIVSQPTRGLDVGAIEYIRKRLIAERDKGKAVLVVSFELDEILDVSDRIAVIHDGVIHGIVEPAKTNKQELGVLMAGGHIEKGEEHA	not soluble
MVRLIHTLADHGDDVSCCAFSAALLATCSLDKTIRLYSLSDFAELPYSPLKFHTYAVHCCCFSPSGHVLASCSTDGTTVLWSSHSGHTLTVLEQPGGSPVRVCCFSPDSAYLASGAADGSIALWNAQTYKLYRCGSVKDSSLVACAFSPDGGLFVTGSSGGDLTVWDDRMRCLHSEKAHDLGITCCSFSSQPLSGGEGLQSYQLASCGQDCEIKLWAVTITRVLGFELKYKSTLSGHCAPVLACAFSHDGKMLASGSVDKSVIIHGIGPQSVLHTLTQHTRYVTTCAFAPNTLLLATGSMDKTVNIWQFDLETPCQGSMNDPLKHFTEEWSEEDVSVWLRAQGLEDLVGIFRANNIDGKELLHLTKESLAGDLKIESLGLRSKVLRSIEELRAKMDSLSSGIPDEFICPITRELMKDPVIASDGYSYEREAMESWIHKKKRTSPMTNLALPSLVLTPNRTLKMAINRWLETHEK	soluble
MYKAIIMPVDVFEMELSDKAVRHAEFLAQDDGVIHLLHVLPGSASLSLHRFAADVRRFEEHLQHEAEERLQTMVSHFTIDPSRIKQHVRFGSVRDEVNELAEELGADVVVIGSRNPSISTHLLGSNASSVIRHANLPVLVVR	not soluble
MGHHHHHHSHMKALLSIEMDMQVPFHDVDSMGITWHGNYLRYFEVARCKLLDELGYNYRQMRASNYAWPIIDVQIKYVKPSTFEQHITVRAELVEWENRLKINYQIRDTATGERITKGYTIQAAVDMTSQEMCFVTPEVFRSKIAPLLAKVDNE	soluble
MGSDKIHHHHHHACTGSSQKEKPACVNTPVEPFTGLPVFDLQEQYPEKEIILQDIADVRYVVLETGDSSLVGIRPILMTDSFLVTVNKKSDVIFFDKSGKYLHSFNHTSMSGEEYGDIVSGYCIDEKAREIFIYDGLQSRIQVYGYGGAYRRTLKLPQNRMFASSIFEYDENFLFGEDYRLVDSQIGKYPVNKTPYYKISKKDGKLTSIPITVKERIRDGLSYTVGDGAFGYVSLLMSPVARFGSDILIADYSLDTAYVYRDDHLIPLTVRRNHTSENNIPILATVDVMTGRYLLWYTIVKDIDVKNNRVSDPVSYLYDRFTNEYCRVDLVNRDVVSATNIPAFQMRLSANYHVVPENYAIQYYPAEELIELNGQGKLKGELKEIASKLNDEDNPVLLIAKFKE	not soluble
MANSSRRTTAFSEAEKAAVYRALLTRRDIRHFRPDPIPEEVLERLYQAFHAAPSVGLTQPWAIVEIRERATKERVFALHQEARARERALFQGKAQRVYDRLRLEGLLEAPLHLAVFQRPVARSLGHHTMPETLAYSVVLAVGNLWTAARAEGIGVGWVSILEPEAVARLLGAPPDYRLLAYLCLGYPRAWPDEPLLERAGWRQREPLLRYRERFP	soluble
MGSDKIHHHHHHMYQNDFVMPKSVYLLNHSVGRPLQSLRQAFDERFFLPWQGSGREPWGDWLSVVEDFRVQLARLFNSETRLFCPQVNLSSGLTKLVQSHSRLRRPGAVILMSENDFPSMGFALRQALPEAEIRFIPANLDVSLAEVWQAHLTDDIDLVFISHAYSNTGQQAPLDYLIPKVRELGALSLVDVAQAAGVLPLDLNALKPDFMLGSSVKWLCGGPGAAYLWVSAAQLVHCSPQDVGWFSHENPFEFDIHDFRYHDSALKFWGGTPSVAPFALAAHSIGYFAELGSDKVRQHNLMQLQRIWRQAGDALVSPSDAARCSGTAILDFGEDQQAVVEALTQADISLDVRKQGMRISPHIYNGEQDLQRLLEALAPFCR	not soluble
MSLSILFKNAALLDPLQADLMDAHHVLVEDNLIKEVSDRPLQVTADRTIDLRGKTLMPGLIDLHVHAVAVELNLAQQVHMPNVLVTLRSTLLLRGMLRRGFTTVRDAGGAGHALKQAIETGLTDGPRLFVSGRALSQTGGHGDMRARSDYLASDAPCPCCVRVGALARVADGVDGVRRAAREELQMGADQIKIMASGGVASPTDPVGAFGYSEDEIRAIVEEARGRQTYVLAHAYTAAAIARAVRCGVRTIEHGNLVDEPTARLMAEKGAYVVPTLVTYEALANEGAQYGLPPESVAKIADVRDAGLRSLAIYRDAGVKMGFGSDLLGPSQRLQSDEFRIRAEILGPRAVIASATVIGAEVLGMEGKLGRIAPEALADLLVVDGNPLRDVACLLGQGEHIPLVLKAGKVQFDRLNAEGHHHHHH	not soluble
MARFALVLHAHLPYVRAHGMWPFGEETLYEAMAETYLPLIRVLERLRAEGVEAPFTLGITPILAEQLADARIKEGFWAYAKDRLERAQGDYQRYRGTALEASARHQVAFWELTLDHFQRLSGDLVAAFRKAEEGGQVELITSNATHGYSPLLGYDEALWAQIKTGVSTYRRHFAKDPTGFWLPEMAYRPKGPWKPPVEGPPEGVRPGVDELLMRAGIRYTFVDAHLVQGGEPLSPYGEAALGPVESQEATYHVHELESGLRVLARNPETTLQVWSADYGYPGEGLYREFHRKDPLSGLHHWRVTHRKADLAEKAPYDPEAAFAKTEEHARHFVGLLERLAGRHPEGVILSPYDAELFGHWWYEGVAWLEAVLRLLAQNPKVRPVTAREAVQGPAVRTALPEGSWGRGGDHRVWLNEKTLDYWEKVYRAEGAMREAARRGVLPEGVLRQAMRELLLLEASDWPFLMETGQAEAYARERYEEHARAFFHLLKGASPEELRALEERDNPFPEADPRLYLFREA	soluble
SNAMHILVTGFAPFDNQNINPSWEAVTQLEDIIGTHTIDKLKLPTSFKKVDNIINKTLASNHYDVVLAIGQAGGRNAITPERVAINIDDARIPDNDDFQPIDQAIHLDGAPAYFSNLPVKAMTQSIINQGLPGALSNSAGTFVCNHTLYHLGYLQDKHYPHLRFGFIHVPYIPEQVIGKPDTPSMPLEKIVAGLTAAIEAISNDEDLHLALGTTE	soluble
MGSDKIHHHHHHMAFQNIQRFQNQDLIRVGNDDNYLLLAPHYGGRLVRWVRHGEEILYWPEAADWSRPAKIRGGNPLLFPFIGRHFADGEAGRWRDANGTTHTLPQHGFARDLPFTVVAADDDKIVMALESSDSTRAGYPYAFRFEASYVMLEDGVEVALRSENTGSDRLPYYAGHHFYFSLPAAHRPDTRLLLPEAVRLRQEPDGRLTHAIQGEPAYALDDDRLQDTFHALRGGGSVTLAMPGRTLAIDLDVPGCVAWHAVTTWTESKDADFYCVEPWLGLPDAIHHGHGLRWLEPGEQETAVCRVRVVA	not soluble
MGSDKIHHHHHHMPLTRERTDMSNLLSISDLSITFDNGPRVVDGLSFSIDKGQTLALVGESGSGKSVSALSILRLLDERHAAYPAGHILYKGEDLLQAQEKRLRQIRGRHISMIFQEPMTSLNPLHTVEKQISETLELHKGMRGPQARKRCLELLELVGIPAPETRLKSYPHQLSGGQKQRVMIAMALANEPDLLIADEPTTALDVTVQKQVLELLKSLQQKLGMAVLLITHDLSIVRRYADYVVVMERGKMVEQGATETLFRSPSHTYTRKLIDAEPPEHPLPAANGTETLMTVDNVNVHFPIRKTMLGKVKESFHAVQDASFELRAGETLGIVGESGSGKTTLGHALLKLTPSTGTFSLCGTELSALSQKAFRPWRRRVQIVFQDPFGSLSPRMSVEEIIREGLEIHEPGSSGQHEARVIQALKDVGLDPDARHRYPHEFSGGQRQRIAIARALVLQPDLMILDEPTSALDRTVQKQVIELLREIQARYRLSYIFISHDLAVVRALSHKLLVLRQGRIVEYGDAETIFREPQQPYTRELLNAAFFYQSTTN	not soluble
